From doi:10.1101/2021.03.07.432812

Assays:
Y177A, W151A, and F141A = assay: ITC
[1] = target: Spindlin1_(50-262) bound to DOCpep(1-3) (UniProt Q9Y657); assay: ITC

Row | fold reduction of binding against wild-type Spindlin1 (Y177A, W151A, and F141A) | fold decrease of binding affinity in the presence of DOCpep(1-3) [1] | Substance
1 | 1.5 to 3 fold |  | DOCpep2, SPIN•DOC 228-239 peptide (from UniProt Q9BUA3 228-239)
2 |  | 18 fold | histone H3 1-20 K4me3 peptide (from UniProt P68431 2-21)
